Measured values taken from US20260167959A1, “APTAZYME-BASED REGULATABLE GENE EXPRESSION SYSTEMS” (REJUVENATE BIO INC, priority 2022, published 2026).

The molecules below were run on Renilla luciferase RNA (assay: Barcoded aptazyme variant library screen: un-cleaved Renilla luciferase RNA by barcode read counts, HEK293-T cells). Conditions: un-cleaved Renilla luciferase RNA, HEK293-T cells cultured with 1 mM theophylline (ON) over without theophylline (OFF); barcode read counts, triplicate.
Type: cell-based
Outline: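 Barcode sequencing of cDNA versus DNA, normalized per aptazyme, gave the un-cleaved Renilla luciferase RNA fraction and fold-change with versus without theophylline (triplicates). Library: T3H48 ribozyme with one of seven theophylline aptamer variants inserted at each position, placed in the Renilla 3′ UTR of a dual-luciferase vector.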

Molecule	Fold change in RNA expression between the ON state and the OFF state
RA022 (nucleic acid, expressed or natural sequence) DNA: GCGCGTCCTGGATTCGCGGAAACGCGTACAAGTGATACCAGCATCGTCTTGATGCCCTTGGCAGCACTTCCAGCTGACGAGTCCCAAATAGGACGAAACGCGC	2.6 fold
RA219 (nucleic acid, expressed or natural sequence) DNA: GCGCGTCCTGGATTCGCGGAAACGCGTACATCCAGCGGAATACCAGCATCGTCTTGATGCCCTTGGAAGTCCTGACGAGTCCCAAATAGGACGAAACGCGC	1.2 fold
RA223 (nucleic acid, expressed or natural sequence) DNA: GCGCGTCCTGCGAGAATACCAGCATCGTCTTGATGCCCTTGGAAGTCTCGGATTCGCGGAAACGCGTACATCCAGCTGACGAGTCCCAAATAGGACGAAACGCGC	1.2 fold
RA216 (nucleic acid, expressed or natural sequence) DNA: GCGCGTCCTGGATTCGCGGAAACGCGTACATCCAGCTGACGAGTCAGTGATACCAGCATCGTCTTGATGCCCTTGGCAGCACTCCAAATAGGACGAAACGCGC	1.2 fold
RA021 (nucleic acid, expressed or natural sequence) DNA: GCGCGTCCTGGATTCGCGGAAACGCGTACATCCAGCTGACGAGTCCCAAATAGAGTGATACCAGCATCGTCTTGATGCCCTTGGCAGCACTGACGAAACGCGC	2.7 fold
RA218 (nucleic acid, expressed or natural sequence) DNA: GCGCGTCCTGGATTCGCGGAAACGCGTACATCCAAGTGATACCAGCATCGTCTTGATGCCCTTGGCAGCACTGCTGACGAGTCCCAAATAGGACGAAACGCGC	1.2 fold
RA224 (nucleic acid, expressed or natural sequence) DNA: GCGCGTCCTGGATTCGCGGAAACGCGTACATCCAGCTGACGAGTCCCAAATAGAGAATACCAGCATCGTCTTGATGCCCTTGGAAGTCTGACGAAACGCGC	1.1 fold
RA235 (nucleic acid, expressed or natural sequence) DNA: GCGCGTCCTGGATTCGCGGAAACGCGTACATCCAGCTGACGAGTCCCAAATAGGAGAGAATACCAGCATCGTCTTGATGCCCTTGGAAGTCTCCGAAACGCGC	1.1 fold
RA020 (nucleic acid, expressed or natural sequence) DNA: GCGCGTCCTGGATTCGCGGAAACGCGTACATCGGAATACCAGCATCGTCTTGATGCCCTTGGAAGTCCGCCAGCTGACGAGTCCCAAATAGGACGAAACGCGC	2.7 fold
RA209 (nucleic acid, expressed or natural sequence) DNA: GCGCGTCCTGGATTCGCGGAGAGAATACCAGCATCGTCTTGATGCCCTTGGAAGTCTCAACGCGTACATCCAGCTGACGAGTCCCAAATAGGACGAAACGCGC	1.2 fold
RA217 (nucleic acid, expressed or natural sequence) DNA: GCGCGTCCTGGATTCCGAGAATACCAGCATCGTCTTGATGCCCTTGGAAGTCTCGGCGGAAACGCGTACATCCAGCTGACGAGTCCCAAATAGGACGAAACGCGC	1.2 fold
RA222 (nucleic acid, expressed or natural sequence) DNA: GCGCGTCCTGGATTCGCGGAAACGCGTACATCCAGCTGACAGAATACCAGCATCGTCTTGATGCCCTTGGAAGTCTGAGTCCCAAATAGGACGAAACGCGC	1.2 fold
RA227 (nucleic acid, expressed or natural sequence) DNA: GCGCGTCCGAGAATACCAGCATCGTCTTGATGCCCTTGGAAGTCTCGCTGGATTCGCGGAAACGCGTACATCCAGCTGACGAGTCCCAAATAGGACGAAACGCGC	1.1 fold
RA231 (nucleic acid, expressed or natural sequence) DNA: GCGAGAATACCAGCATCGTCTTGATGCCCTTGGAAGTCTCGCGTCCTGGATTCGCGGAAACGCGTACATCCAGCTGACGAGTCCCAAATAGGACGAAACGCGC	1.1 fold
RA233 (nucleic acid, expressed or natural sequence) DNA: GCAGTGATACCAGCATCGTCTTGATGCCCTTGGCAGCACTGCGTCCTGGATTCGCGGAAACGCGTACATCCAGCTGACGAGTCCCAAATAGGACGAAACGCGC	1.1 fold
RA213 (nucleic acid, expressed or natural sequence) DNA: GCGCGTCCTGGATTCGCGGAAACGCGTACATCCAGCTCGAGAATACCAGCATCGTCTTGATGCCCTTGGAAGTCTCGGACGAGTCCCAAATAGGACGAAACGCGC	1.2 fold
RA214 (nucleic acid, expressed or natural sequence) DNA: GCGCGTCCTGGATTCGCGAGAATACCAGCATCGTCTTGATGCCCTTGGAAGTCTCGGAAACGCGTACATCCAGCTGACGAGTCCCAAATAGGACGAAACGCGC	1.2 fold
RA234 (nucleic acid, expressed or natural sequence) DNA: GCGCGTCCTGGATTCGCGGAAACGCGTACATCCAGCTGACGAGTCCCAAATAGGACGAAACCGGAATACCAGCATCGTCTTGATGCCCTTGGAAGTCCGGCGC	1.1 fold
RA221 (nucleic acid, expressed or natural sequence) DNA: GCGCGTCCTGGATTCGCGGAAACGCGTACATCCAGCTGACGGAATACCAGCATCGTCTTGATGCCCTTGGAAGTCCGCGAGTCCCAAATAGGACGAAACGCGC	1.2 fold
RA226 (nucleic acid, expressed or natural sequence) DNA: GCGCGTCCTGGATTCGCGGAAACGCGTACATCCAGCTGAAGTGATACCAGCATCGTCTTGATGCCCTTGGCAGCACTCGAGTCCCAAATAGGACGAAACGCGC	1.1 fold
RA208 (nucleic acid, expressed or natural sequence) DNA: GCGCGTCCTGGATTCGCGGAAACGCGTACATCCAGCTGACGAGTCCCAAACCGGAATACCAGCATCGTCTTGATGCCCTTGGAAGTCCGGTAGGACGAAACGCGC	1.2 fold
RA228 (nucleic acid, chemistry not given here) DNA: GCGCGTCCTGGATTCGCGGAAACGCGTACATCCAGCTGGGAATACCAGCATCGTCTTGATGCCCTTGGAAGTCCACGAGTCCCAAATAGGACGAAACGCGC	1.1 fold
RA225 (nucleic acid, expressed or natural sequence) DNA: GCGCGTCCTGGATTCGCGGAAACGCGTACATCCAGCTGACGAGTCCCAAATAAGAATACCAGCATCGTCTTGATGCCCTTGGAAGTCTGGACGAAACGCGC	1.1 fold
RA212 (nucleic acid, expressed or natural sequence) DNA: GCGCGTCCTGGATTCAGAATACCAGCATCGTCTTGATGCCCTTGGAAGTCTGCGGAAACGCGTACATCCAGCTGACGAGTCCCAAATAGGACGAAACGCGC	1.2 fold
RA220 (nucleic acid, expressed or natural sequence) DNA: GCCGAGAATACCAGCATCGTCTTGATGCCCTTGGAAGTCTCGGCGTCCTGGATTCGCGGAAACGCGTACATCCAGCTGACGAGTCCCAAATAGGACGAAACGCGC	1.2 fold
RA232 (nucleic acid, expressed or natural sequence) DNA: GCCCGGAATACCAGCATCGTCTTGATGCCCTTGGAAGTCCGGGCGTCCTGGATTCGCGGAAACGCGTACATCCAGCTGACGAGTCCCAAATAGGACGAAACGCGC	1.1 fold
RA211 (nucleic acid, expressed or natural sequence) DNA: GCGCGTCCTGGATTCGGGAATACCAGCATCGTCTTGATGCCCTTGGAAGTCCCGGAAACGCGTACATCCAGCTGACGAGTCCCAAATAGGACGAAACGCGC	1.2 fold
RA229 (nucleic acid, expressed or natural sequence) DNA: GCGCCGGAATACCAGCATCGTCTTGATGCCCTTGGAAGTCCGGCGTCCTGGATTCGCGGAAACGCGTACATCCAGCTGACGAGTCCCAAATAGGACGAAACGCGC	1.1 fold
RA230 (nucleic acid, expressed or natural sequence) DNA: GCGCGTCCTGAGAATACCAGCATCGTCTTGATGCCCTTGGAAGTCTCGGATTCGCGGAAACGCGTACATCCAGCTGACGAGTCCCAAATAGGACGAAACGCGC	1.1 fold
